Target: N-terminal 6X-His-Tagged Caspar (Drosophila)
Assay: SEC

stoichiometry N: 2
Substance: N-terminal 6X-His-Tagged Caspar (natural protein)

— publication doi:10.1101/2021.04.07.438776
